# Test results taken from patent US20200369769A1.
# Target: PD-L1 (UniProt Q9NZQ7)
# Assay: cell-based or functional assay
# Sequence of PD-L1 (Q9NZQ7 19-290 limits assumed): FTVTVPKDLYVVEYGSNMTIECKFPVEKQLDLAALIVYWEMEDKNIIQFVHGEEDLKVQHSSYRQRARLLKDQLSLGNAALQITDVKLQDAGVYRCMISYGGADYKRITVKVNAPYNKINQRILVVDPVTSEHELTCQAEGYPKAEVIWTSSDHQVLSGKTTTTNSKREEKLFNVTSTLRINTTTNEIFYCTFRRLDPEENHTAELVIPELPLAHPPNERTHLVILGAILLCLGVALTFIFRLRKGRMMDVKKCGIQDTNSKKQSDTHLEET
substance,measurement,value
anti-PD-L1 antibody (chimera of the variable domain of atezolizumab with human IgG2 domains),"IL2 concentration (% over isotype control), mixed lymphocyte reaction (% over isotype control)",247
